Molecular target: Human FcRn (neonatal Fc-receptor), C-terminally biotinylated (human) (UniProt P55899)
Test: SPR; pH 6.0

Row | Substance | Kd
1 | GDob1 IgG2 (from UniProt P01859) | 39 nM
2 | GDob1 IgG2 + G236 (from UniProt P01859) | 41.8 nM
3 | GDob1 IgG1ΔG236 (from UniProt P01857) | 25 nM
4 | GDob1 IgG1 (from UniProt P01857) | 23.7 nM
